The data set deals with T1, intact recombinant human POSTN (periostin, SEQ ID NO: 1).
T1 chain: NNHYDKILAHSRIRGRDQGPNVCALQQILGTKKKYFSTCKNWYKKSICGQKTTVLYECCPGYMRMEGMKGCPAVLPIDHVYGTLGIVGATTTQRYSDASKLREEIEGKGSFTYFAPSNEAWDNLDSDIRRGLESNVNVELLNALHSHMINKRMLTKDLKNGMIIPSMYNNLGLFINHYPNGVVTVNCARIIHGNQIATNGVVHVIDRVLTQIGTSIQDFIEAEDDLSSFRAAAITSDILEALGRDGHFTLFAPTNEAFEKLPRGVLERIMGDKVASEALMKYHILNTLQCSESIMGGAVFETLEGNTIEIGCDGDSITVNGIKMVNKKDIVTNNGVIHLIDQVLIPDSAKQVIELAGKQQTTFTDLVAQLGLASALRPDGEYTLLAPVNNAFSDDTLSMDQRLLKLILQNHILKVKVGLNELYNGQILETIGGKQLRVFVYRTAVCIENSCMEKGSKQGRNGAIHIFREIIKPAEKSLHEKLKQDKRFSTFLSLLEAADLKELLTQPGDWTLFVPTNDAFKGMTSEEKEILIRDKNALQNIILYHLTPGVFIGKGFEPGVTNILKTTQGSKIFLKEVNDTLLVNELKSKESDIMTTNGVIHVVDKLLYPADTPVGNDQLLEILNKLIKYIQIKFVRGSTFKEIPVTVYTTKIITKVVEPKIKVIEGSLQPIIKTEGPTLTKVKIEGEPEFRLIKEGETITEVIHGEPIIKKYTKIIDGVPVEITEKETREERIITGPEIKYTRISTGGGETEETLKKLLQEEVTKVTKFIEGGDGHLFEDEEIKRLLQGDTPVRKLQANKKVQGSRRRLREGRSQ

B1: human CatK of SEQ ID NO: 19 (Cathepsin K) (protein)
chain: APDSVDYRKKGYVTPVKNQGQCGSCWAFSSVGALEGQLKKKTGKLLNLSPQNLVDCVSENDGCGGGYMTNAFQYVQKNRGIDSEDAYPYVGQEESCMYNPTGKAAKCRGYREIPEGNEKALKRAVARVGPVSVAIDASLTSFQFYSKGVYYDESCNSDNLNHAVLAVGYGIQKGNKHWIIKNSWGENWGNKGYILMARNKNNACGIANLASFPKM
Take B1: the “CatK digestion of human recombinant POSTN (SDS-PAGE, LC-MS/MS)” value was “human POSTN is a substrate to CatK-dependent enzymatic digestion that is generating large amount of several peptides”.

Source of the values: patent publication US20180284135A1.
